These results are taken from article PMC12784962, “https://orcid.org/0000-0002-3633-7823 Baral Joydeep Department of Bioscience and Biotechnology, Indian Institute of Technology Kharagpur, West Midnapore 721302, West Bengal, India”.

Data set [1] addresses T1, mKu WT (Mycobacterium tuberculosis, UniProt P9WKD9 1-273).
T1 sequence: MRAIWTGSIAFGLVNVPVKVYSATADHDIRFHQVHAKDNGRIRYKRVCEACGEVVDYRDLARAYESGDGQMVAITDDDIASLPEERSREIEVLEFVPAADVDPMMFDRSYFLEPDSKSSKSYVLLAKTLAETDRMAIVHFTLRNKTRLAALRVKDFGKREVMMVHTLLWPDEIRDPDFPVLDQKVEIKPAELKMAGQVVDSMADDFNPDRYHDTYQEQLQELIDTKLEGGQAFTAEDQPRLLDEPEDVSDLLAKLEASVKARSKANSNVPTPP
The data set is described as follows: FRET; 250 nM DNA, 0-305 nM mKu; saturating synapsis signal; EMSA: 25 mM Tris-Cl pH 7.5, 100 mM NaCl, 30 mM KCl, 0.1 mM EDTA, 0.05% Triton X-100, BSA, 2% glycerol, 2 mM DTT, 25 C, 30 min; FRET: 10 mM PBS pH 7.4, 25 C; cryo-EM: 4 C, 30 min. The conditions noted are these: protein: recombinant; pET16b); chain copies: 2; label: S4: 5'-Cy5, 3'-Cy3; complement (S5): 5'-Cy3, 3'-Cy5; blunt. For orientation: Mobility shift assays separate free from complexed probe on a gel.

In data set [2] the target is T1, mKu WT. In words: cryo-EM; 5 uM mKu dimer and 5 uM DNA; supercomplex; EMSA: 25 mM Tris-Cl pH 7.5, 100 mM NaCl, 30 mM KCl, 0.1 mM EDTA, 0.05% Triton X-100, BSA, 2% glycerol, 2 mM DTT, 25 C, 30 min; FRET: 10 mM PBS pH 7.4, 25 C; cryo-EM: 4 C, 30 min. The conditions noted are these: protein: recombinant; pET16b); chain copies: 2; hairpin at one end, other end blunt.

B1: 50-bp Cy3/Cy5 FRET dsDNA (dsDNA)
DNA 1: CCACACTGTCGCCGCCGACGTCTGTGATATGGCGTTGTTGCGCCGCCGAC
DNA 2: GTCGGCGGCGCAACAACGCCATATCACAGACGTCGGCGGCGACAGTGTGG
As to B1, the binding result in data set [1] is “binds”.

B2: shDNA (21-mer/34-mer hairpin) (structured_DNA)
DNA 1: GTTTTTAGTTTATTGGGCGCG
DNA 2: CGCGCCCAGCTTTCCCAGCTAATAAACTAAAAAC
Turning to B2, the binding result in data set [2] is “binds”.
